Reference: the supplement of paper PMC6757056
± gives the standard deviation of the averaged measurements.

B1: library; a variant is named by its letters at N, in order (parent)
chain: GCUGUCACCGGUGCUUGGUACGUUAUAUUCAGCCGGUCUGAUGAGUCUNNNNNNAGACGAAACAGC

Assays:
(6R,S)-folinic acid [1] = variants of: B1; assay: FACS-Seq fitted mean relative fluorescence mCherry/BFP without ligand (log10 relative fluorescence); HEK293T overexpressing SLC46A1; higher = higher reporter protein expression; conditions: without (6R,S)-folinic acid; ligand present: no
Description: (§1)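 Hammerhead (sTRSV) ribozyme switch libraries with a ligand aptamer grafted on stem I and a randomized N4-6 loop II, cloned into the 3' UTR of mCherry and transiently transfected into HEK293T cells; RNA-Seq 72 h post transfection with ligand added 1 h before transfection; RNA read count / plasmid DNA read count normalized to the non-cleaving sTRSVctl (x100), log10; sequences with >100 DNA reads. FACS-Seq: lentiviral library sorted into 6 bins after 48 h ligand, log-normal fit mean of mCherry/BFP scaled to controls. Printed sequences are partial switch sequences.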

(6R,S)-folinic acid [2] = variants of: B1; assay: normalized RNA/DNA level without ligand (relative to sTRSVctl = 100) (log10 (% of sTRSVctl)); HEK293T overexpressing SLC46A1; higher = less ribozyme self-cleavage, higher mRNA level; conditions: without (6R,S)-folinic acid; ligand present: no
Description: as §1

(6R,S)-folinic acid [3] = variants of: B1; assay: FACS-Seq fitted mean relative fluorescence mCherry/BFP with ligand (log10 relative fluorescence); HEK293T overexpressing SLC46A1; ligand concentration (+) FACS-Seq: 6 mM; higher = higher reporter protein expression; conditions: with (6R,S)-folinic acid; ligand present: yes
Description: as §1

(6R,S)-folinic acid [4] = variants of: B1; assay: normalized RNA/DNA level with ligand (relative to sTRSVctl = 100) (log10 (% of sTRSVctl)); HEK293T overexpressing SLC46A1; ligand concentration (+) RNA-Seq: 6 mM; higher = less ribozyme self-cleavage, higher mRNA level; conditions: with (6R,S)-folinic acid; ligand present: yes
Description: as §1

Row | Variant | FACS-Seq fitted mean (log10) ((6R,S)-folinic acid [1]) | normalized RNA/DNA level without ligand (log10) ((6R,S)-folinic acid [2]) | FACS-Seq fitted mean (log10) ((6R,S)-folinic acid [3]) | normalized RNA/DNA level with ligand (log10) ((6R,S)-folinic acid [4])
1 | UACGAG | 0.31 ± 0.029 | 1.689 ± 0.014 | 0.472 ± 0.14 | 1.953 ± 0.013
2 | UACGAU | 0.175 ± 0.046 | 1.9462 ± 0.0017 | 0.146 ± 0.33 | 2.02 ± 0.023
3 | UACCCG | 0.166 ± 0.063 | 1.92 ± 0.03 | 0.279 ± 0.24 | 1.977 ± 0.0043
4 | AACUAC | 0.381 ± 0.012 | 2 ± 0.021 | 0.181 ± 0.25 | 2.005 ± 0.02
5 | CAGCUG | 0.118 ± 0.025 | 2.073 ± 0.01 | 0.1 ± 0.12 | 2.06 ± 0.022
6 | UAGAGC | 0.0862 ± 0.082 | 1.93 ± 0.022 | 0.445 ± 0.031 | 1.99 ± 0.048
7 | UAGAGA | 0.273 ± 0.12 | 1.807 ± 0.015 | 0.551 ± 0.33 | 1.99 ± 0.029
8 | UAGAGG | 0.0109 ± 0.02 | 1.561 ± 0.013 | 0.481 ± 0.11 | 1.9 ± 0.052
9 | UACGGA | 0.537 ± 0.046 | 1.8816 ± 0.00018 | 0.817 ± 0.11 | 2 ± 0.029
10 | UACGGG | 0.198 ± 0.013 | 1.704 ± 0.0067 | 0.717 ± 0.3 | 1.97 ± 0.053
11 | UACGGU | 0.419 ± 0.099 | 1.918 ± 0.012 | 0.282 ± 0.041 | 1.98 ± 0.024
12 | AACCGG | 0.00166 ± 0.089 | 2.032 ± 0.0087 | -0.0748 ± 0.11 | 2.04 ± 0.033
13 | CACACU | 0.136 ± 0.099 | 2.008 ± 0.011 | 0.187 ± 0.057 | 2.03 ± 0.011
14 | AACAUC | -0.902 ± 0.27 | 2.061 ± 0.019 | -0.887 ± 0.24 | 2.06 ± 0.065
15 | AACAUA | 0.204 ± 0.049 | 1.975 ± 0.0044 | 0.324 ± 0.15 | 1.99 ± 0.033
16 | AACAUG | 0.494 ± 0.1 | 1.96 ± 0.0024 | 0.6524 ± 0.0008 | 2.02 ± 0.022
17 | AAGAGG | 0.589 ± 0.041 | 1.843 ± 0.0052 | 0.632 ± 0.11 | 1.99 ± 0.021
18 | AAGAGU | 0.413 ± 0.019 | 1.924 ± 0.0098 | 0.369 ± 0.0072 | 2.02 ± 0.047
